Like-named read-outs stand apart in the source and are kept apart here.
Legend:
XCL1 R23A,R43A (human) [1] = biological target: XCL1 R23A,R43A (human) (UniProt P47992); assay: 19F NMR
XCL1 R23A,R43A (human) [2] = biological target: XCL1 R23A,R43A (human) (UniProt P47992); assay: 19F NMR; remark: listed apart in the source

percent of the protein in the dimer fold (XCL1 R23A,R43A (human) [1]): 26% | percent of the protein in the dimer fold (XCL1 R23A,R43A (human) [2]): 20%
Substance: XCL1 R23A,R43A (from UniProt P47992 22-93) (domain or fragment)

— paper doi:10.64898/2025.12.30.697132
